# Results: publication PMC4434323
# Biological target: dmd-5 (F10C1.5) (Caenorhabditis elegans) (UniProt Q19291)
# Sequence (Q19291 1-125): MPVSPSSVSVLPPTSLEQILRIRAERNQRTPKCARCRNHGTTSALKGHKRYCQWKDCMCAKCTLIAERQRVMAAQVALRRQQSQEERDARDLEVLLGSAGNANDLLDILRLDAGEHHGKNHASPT
row,Sequence,binding signal (PBM E-score (-0.5 to 0.5))
1,TGTTACAA (double strand) [8-mer TGTTACAA],0.484

# Biological target: T1, end-3 (F58E10.5) (Caenorhabditis elegans) (UniProt Q9XUW7)
# T1 sequence: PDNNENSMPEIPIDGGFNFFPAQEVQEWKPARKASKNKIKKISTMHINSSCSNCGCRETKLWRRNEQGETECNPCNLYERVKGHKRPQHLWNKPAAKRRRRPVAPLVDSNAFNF
row,Sequence,binding signal (PBM E-score (-0.5 to 0.5))
1,GATAAGAA (double strand) [8-mer GATAAGAA],0.488
2,AGATAACA (double strand) [8-mer AGATAACA],0.488

# Biological target: T2, dmd-6 (F13G11.1) (Caenorhabditis elegans) (UniProt O62159)
# T2 sequence: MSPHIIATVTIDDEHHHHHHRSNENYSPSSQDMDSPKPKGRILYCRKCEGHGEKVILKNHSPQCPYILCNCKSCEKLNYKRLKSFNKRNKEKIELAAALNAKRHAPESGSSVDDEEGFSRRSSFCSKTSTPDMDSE
row,Sequence,binding signal (PBM E-score (-0.5 to 0.5))
1,AAAATTTA (double strand) [8-mer AAAATTTA],0.471
2,AAAAAGTT (double strand) [8-mer AAAAAGTT],0.484
3,AAATATTT (double strand) [8-mer AAATATTT],0.482
4,AAATTTTA (double strand) [8-mer AAATTTTA],0.477
5,AAATTTAT (double strand) [8-mer AAATTTAT],0.479
6,AAAAGTTA (double strand) [8-mer AAAAGTTA],0.486
7,AAATGTTA (double strand) [8-mer AAATGTTA],0.475

# Test system: T3, C34D1.1 (C34D1.1) (Caenorhabditis elegans)
# T3 sequence: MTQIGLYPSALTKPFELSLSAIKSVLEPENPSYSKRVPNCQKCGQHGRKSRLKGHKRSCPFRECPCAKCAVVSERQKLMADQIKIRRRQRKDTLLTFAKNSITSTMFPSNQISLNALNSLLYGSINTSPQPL
row,Sequence,binding signal (PBM E-score (-0.5 to 0.5))
1,TGTTGCAA (double strand) [8-mer TGTTGCAA],0.469

# Biological target: T4, efl-2 (Y48C3A.17) (Caenorhabditis elegans) (UniProt A5HWA8)
# T4 sequence: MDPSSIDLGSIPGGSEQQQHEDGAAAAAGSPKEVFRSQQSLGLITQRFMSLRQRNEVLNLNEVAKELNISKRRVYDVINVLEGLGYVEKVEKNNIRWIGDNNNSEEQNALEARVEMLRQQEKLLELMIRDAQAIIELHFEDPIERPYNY
row,Sequence,binding signal (PBM E-score (-0.5 to 0.5))
1,ATGCGCGC (double strand) [8-mer ATGCGCGC],0.485
2,CGCGCGCA (double strand) [8-mer CGCGCGCA],0.491
3,AGGCGCGC (double strand) [8-mer AGGCGCGC],0.487
4,AGCGCGCC (double strand) [8-mer AGCGCGCC],0.488
5,GCGCGCCA (double strand) [8-mer GCGCGCCA],0.49
6,GCGCGCGA (double strand) [8-mer GCGCGCGA],0.485
7,ACGCGCGC (double strand) [8-mer ACGCGCGC],0.49
8,GCGCGCAC (double strand) [8-mer GCGCGCAC],0.487
9,CGCGCGCC (double strand) [8-mer CGCGCGCC],0.488
10,GAGCGCGC (double strand) [8-mer GAGCGCGC],0.486
11,ACCCGCGC (double strand) [8-mer ACCCGCGC],0.486

# Biological target: T5, fkh-9 (K03C7.2) (Caenorhabditis elegans) (UniProt Q21187)
# T5 sequence: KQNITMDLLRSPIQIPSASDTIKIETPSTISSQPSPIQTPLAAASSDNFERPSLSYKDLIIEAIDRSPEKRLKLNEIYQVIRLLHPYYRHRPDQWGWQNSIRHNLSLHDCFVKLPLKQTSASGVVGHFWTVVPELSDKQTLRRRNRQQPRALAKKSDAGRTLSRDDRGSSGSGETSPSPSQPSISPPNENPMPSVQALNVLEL
row,Sequence,binding signal (PBM E-score (-0.5 to 0.5))
1,CATAACAA (double strand) [8-mer CATAACAA],0.486
2,AAAAACAA (double strand) [8-mer AAAAACAA],0.49
3,TCATAACA (double strand) [8-mer TCATAACA],0.485
4,AAAACAAC (double strand) [8-mer AAAACAAC],0.491
5,TAAAAACA (double strand) [8-mer TAAAAACA],0.485
6,GAAAACAA (double strand) [8-mer GAAAACAA],0.489
7,CAAAACAA (double strand) [8-mer CAAAACAA],0.494
8,AACAACAA (double strand) [8-mer AACAACAA],0.487
9,AATAACAA (double strand) [8-mer AATAACAA],0.494
10,CAATAACA (double strand) [8-mer CAATAACA],0.488
11,TCAAAACA (double strand) [8-mer TCAAAACA],0.491

# Biological target: T6, mab-3 (Y53C12B.5) (Caenorhabditis elegans) (UniProt O18214)
# T6 sequence: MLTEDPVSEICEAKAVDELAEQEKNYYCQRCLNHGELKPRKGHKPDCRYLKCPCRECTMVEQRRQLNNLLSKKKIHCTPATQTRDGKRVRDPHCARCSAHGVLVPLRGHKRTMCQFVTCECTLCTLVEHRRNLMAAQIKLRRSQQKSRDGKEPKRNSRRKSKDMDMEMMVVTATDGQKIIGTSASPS
row,Sequence,binding signal (PBM E-score (-0.5 to 0.5))
1,TCGCAACA (double strand) [8-mer TCGCAACA],0.499
2,CGCAACAA (double strand) [8-mer CGCAACAA],0.487
3,TGGCAACA (double strand) [8-mer TGGCAACA],0.481
4,GCAACATA (double strand) [8-mer GCAACATA],0.493
5,GTTGCAAC (double strand) [8-mer GTTGCAAC],0.479
6,ATGTTGCG (double strand) [8-mer ATGTTGCG],0.499
7,ATGCAACA (double strand) [8-mer ATGCAACA],0.482
8,GATGTTGC (double strand) [8-mer GATGTTGC],0.495
9,ATTGTTGC (double strand) [8-mer ATTGTTGC],0.486
10,ACGCAACA (double strand) [8-mer ACGCAACA],0.484
11,CCGCAACA (double strand) [8-mer CCGCAACA],0.482
12,ATGTTGCC (double strand) [8-mer ATGTTGCC],0.477
13,TGTTGCAA (double strand) [8-mer TGTTGCAA],0.497

# Biological target: T7, T22H9.4 (T22H9.4) (Caenorhabditis elegans) (UniProt Q9TXN8)
# T7 sequence: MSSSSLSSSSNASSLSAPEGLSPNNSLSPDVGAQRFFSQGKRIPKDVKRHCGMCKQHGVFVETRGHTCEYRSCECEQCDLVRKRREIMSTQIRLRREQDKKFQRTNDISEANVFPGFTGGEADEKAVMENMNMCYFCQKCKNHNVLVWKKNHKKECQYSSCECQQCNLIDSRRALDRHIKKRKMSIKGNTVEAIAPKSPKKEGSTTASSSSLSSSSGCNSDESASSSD
row,Sequence,binding signal (PBM E-score (-0.5 to 0.5))
1,CGTTGCAA (double strand) [8-mer CGTTGCAA],0.488
2,ATTGCAAC (double strand) [8-mer ATTGCAAC],0.493
3,GTTGCAAA (double strand) [8-mer GTTGCAAA],0.493
4,TGTTACAA (double strand) [8-mer TGTTACAA],0.488
5,TGTTAAAA (double strand) [8-mer TGTTAAAA],0.496
6,GTTAAAAA (double strand) [8-mer GTTAAAAA],0.494
7,ATTTCAAC (double strand) [8-mer ATTTCAAC],0.497
8,GTTGCAAC (double strand) [8-mer GTTGCAAC],0.489
9,TGTTGAAA (double strand) [8-mer TGTTGAAA],0.499
10,TGTAGAAA (double strand) [8-mer TGTAGAAA],0.489
11,GTTGAAAA (double strand) [8-mer GTTGAAAA],0.495
12,ATTTTAAC (double strand) [8-mer ATTTTAAC],0.491
13,ATTCAACA (double strand) [8-mer ATTCAACA],0.49
14,TGTCGAAA (double strand) [8-mer TGTCGAAA],0.495
15,TGTTGCAA (double strand) [8-mer TGTTGCAA],0.499

# Biological target: T8, end-1 (F58E10.2) (Caenorhabditis elegans) (UniProt G5EDN4)
# T8 sequence: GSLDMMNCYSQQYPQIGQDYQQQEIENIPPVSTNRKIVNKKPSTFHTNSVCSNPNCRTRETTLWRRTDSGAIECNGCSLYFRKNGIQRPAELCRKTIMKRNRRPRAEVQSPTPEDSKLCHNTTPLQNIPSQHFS
row,Sequence,binding signal (PBM E-score (-0.5 to 0.5))
1,CCTTATCG (double strand) [8-mer CCTTATCG],0.486
2,CCGATAAG (double strand) [8-mer CCGATAAG],0.486
3,ATCTAATC (double strand) [8-mer ATCTAATC],0.487
4,GATATCGA (double strand) [8-mer GATATCGA],0.484
5,CGATAACG (double strand) [8-mer CGATAACG],0.483
6,GATATCGC (double strand) [8-mer GATATCGC],0.487
7,TATCGATA (double strand) [8-mer TATCGATA],0.49
8,CGATAAGA (double strand) [8-mer CGATAAGA],0.487
9,CCGATATC (double strand) [8-mer CCGATATC],0.487
10,CGATATCG (double strand) [8-mer CGATATCG],0.496

# Biological target: T9, elt-6 (F52C12.5) (Caenorhabditis elegans) (UniProt G5EGN3)
# T9 sequence: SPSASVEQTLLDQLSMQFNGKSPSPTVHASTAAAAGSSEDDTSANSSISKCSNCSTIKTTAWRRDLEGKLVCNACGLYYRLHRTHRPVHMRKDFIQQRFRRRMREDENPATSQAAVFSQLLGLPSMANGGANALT
row,Sequence,binding signal (PBM E-score (-0.5 to 0.5))
1,GGTGATAA (double strand) [8-mer GGTGATAA],0.494
2,AGTGATAA (double strand) [8-mer AGTGATAA],0.495
3,CTTATCAC (double strand) [8-mer CTTATCAC],0.496
4,GTGATAAC (double strand) [8-mer GTGATAAC],0.492
5,GTGATAAA (double strand) [8-mer GTGATAAA],0.491
6,GCTTATCA (double strand) [8-mer GCTTATCA],0.493
